Source: patent US20250099635A1, “IIMMUNOCONJUGATES COMPRISING KALLIKREIN RELATED PEPTIDASE 2 ANTIGEN BINDING DOMAINS AND THEIR USES” (Janssen Biotech, Inc., priority 2022, published 2025)
Blank lines part the entries; values can stand above or below the binder they belong to.

Biological target: soluble human kallikrein related peptidase 2 (hK2) protein (human) (UniProt P20151)
Test: SPR; antibody captured by anti-Fc antibody, soluble hK2 injected; 1:1 Langmuir fit

Chain of soluble human kallikrein related peptidase 2 (hK2) protein (human) (P20151 19-261): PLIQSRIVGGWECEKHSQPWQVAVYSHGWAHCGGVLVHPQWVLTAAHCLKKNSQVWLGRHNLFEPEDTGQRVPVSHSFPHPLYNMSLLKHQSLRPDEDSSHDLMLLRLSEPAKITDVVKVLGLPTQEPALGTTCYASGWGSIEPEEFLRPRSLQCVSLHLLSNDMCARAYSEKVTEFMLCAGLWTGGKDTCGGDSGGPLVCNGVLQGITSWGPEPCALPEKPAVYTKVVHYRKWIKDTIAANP

Kd: 0.7 to 1 nM
B1: KL2B359 (scFv-LH-Fc) (Fc fusion, part only; not given: Fc part, part only)
scFv, part: EIVLTQSPATLSLSPGERATLSCRASESVEYFGTSLMHWYQQKPGQPPRLLIYAASNVESGIPARFSGSGSGTDFTLTISSVEPEDFAVYFCQQTRKVPYTFGGGTKVEIKGGSEGKSSGSGSESKSTGGSQVQLQESGPGLVKPSQTLSLTCTVSGNSITSDYAWNWIRQFPGKRLEWIGYISYSGSTTYNPSLKSRVTISRDTSKNQFSLKLSSVTAADTAVYYCATGYYYGSGFWGQGTLVTVSS

Kd: 34.3 nM
B2: KL2B413 (scFv-LH-Fc) (Fc fusion, part only; not given: Fc part, part only)
scFv, part: EIVLTQSPSFLSASVGDRVTITCRASQGISSYLSWYQQKPGKAPKLLIYATSTLQSGVPSRFSGSGSGTEFTLTISSLQPEDFATYYCQQLNSYPRTFGQGTKVEIKGGSEGKSSGSGSESKSTGGSEVQLVESGGGLVQPGGSLRLSCAASGFTFSSYWMTWVRQAPGKGLEWVANIKQDGSERYYVDSVKGRFTISRDNAKNSLYLQMNSLRAEDTAVYYCARDQNYDILTGHYGMDVWGQGTTVTVSS
